The source of these data is patent publication US20160009806A1 (Seagen, published 2016).

For assay [1], the target named is T1, mouse integrin αvβ6 on FDC-P1:muβ6 cells (mouse, UniProt P43406 31-1044; Q9Z0T9 22-787).
T1 construct: whole, on cells; Heterodimer of endogenous mouse αv and recombinant mouse β6
The experiment in a line: saturation binding of biotinylated antibody, flow cytometry on FDC-P1:muβ6 cells (apparent Kd). Here is the method:
(§1) 0.25-0.5×10⁶ antigen expressing cells were aliquoted per well into a 96-well v-bottom plate. m15H3, h15H3 (HBLC) and h15H3 (HTLC) were directly labeled with equivalent levels of biotin and added to cells at concentrations ranging from 0.1 pM-150 nM. Cells were incubated on ice for 30 minutes, washed three times in FACS buffer (PBS, 2% fetal bovine serum, 1 mM MgCl₂, 1 mM CaCl₂, 0.02% NaN₃), incubated on ice for 45 minutes with PE conjugated streptavidin (0.5 ug/ml) in FACS buffer, washed three times and resuspended in FACS buffer. Binding was detected using a Becton Dickinson Biosciences FACSCalibur (San Jose, Calif.). The apparent Kd was calculated using GraphPad Software (LaJolla, Calif.).
Background: Flow cytometry measures light scatter and fluorescence of single cells or particles in a stream.

The target of assay [2] is T2, human integrin αvβ6 on cells (human, UniProt P06756 31-1048; P18564 22-788).
T2 construct: whole, on cells; also called HEK293F:huβ6
T2 sequence (P06756 31-1048, chain 1 of 2): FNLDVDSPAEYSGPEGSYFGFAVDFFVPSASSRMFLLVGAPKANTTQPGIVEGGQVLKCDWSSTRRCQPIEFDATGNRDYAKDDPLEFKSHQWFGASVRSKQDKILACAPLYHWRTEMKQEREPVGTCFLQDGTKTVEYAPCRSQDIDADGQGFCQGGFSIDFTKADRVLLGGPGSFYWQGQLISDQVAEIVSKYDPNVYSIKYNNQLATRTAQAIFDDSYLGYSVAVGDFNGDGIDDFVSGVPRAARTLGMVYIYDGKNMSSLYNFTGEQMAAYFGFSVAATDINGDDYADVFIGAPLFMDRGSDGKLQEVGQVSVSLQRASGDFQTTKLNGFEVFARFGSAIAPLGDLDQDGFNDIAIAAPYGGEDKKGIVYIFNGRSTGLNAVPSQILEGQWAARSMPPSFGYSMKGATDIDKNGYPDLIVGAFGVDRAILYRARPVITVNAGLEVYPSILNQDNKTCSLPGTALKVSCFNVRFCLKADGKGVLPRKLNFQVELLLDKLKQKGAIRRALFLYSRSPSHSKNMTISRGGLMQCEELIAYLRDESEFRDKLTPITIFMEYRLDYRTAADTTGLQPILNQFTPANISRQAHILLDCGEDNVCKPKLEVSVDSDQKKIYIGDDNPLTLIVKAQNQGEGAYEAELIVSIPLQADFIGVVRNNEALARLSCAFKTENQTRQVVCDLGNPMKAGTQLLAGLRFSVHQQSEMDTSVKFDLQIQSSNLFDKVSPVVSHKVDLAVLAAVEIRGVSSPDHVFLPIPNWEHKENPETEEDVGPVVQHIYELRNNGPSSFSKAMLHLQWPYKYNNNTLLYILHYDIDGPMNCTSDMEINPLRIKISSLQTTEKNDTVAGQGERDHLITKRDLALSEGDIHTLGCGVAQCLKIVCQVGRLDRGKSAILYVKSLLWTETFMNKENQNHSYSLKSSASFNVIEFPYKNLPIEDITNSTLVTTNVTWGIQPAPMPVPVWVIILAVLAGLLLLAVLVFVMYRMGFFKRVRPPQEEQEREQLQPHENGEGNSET
T2 sequence (P18564 22-788, chain 2 of 2): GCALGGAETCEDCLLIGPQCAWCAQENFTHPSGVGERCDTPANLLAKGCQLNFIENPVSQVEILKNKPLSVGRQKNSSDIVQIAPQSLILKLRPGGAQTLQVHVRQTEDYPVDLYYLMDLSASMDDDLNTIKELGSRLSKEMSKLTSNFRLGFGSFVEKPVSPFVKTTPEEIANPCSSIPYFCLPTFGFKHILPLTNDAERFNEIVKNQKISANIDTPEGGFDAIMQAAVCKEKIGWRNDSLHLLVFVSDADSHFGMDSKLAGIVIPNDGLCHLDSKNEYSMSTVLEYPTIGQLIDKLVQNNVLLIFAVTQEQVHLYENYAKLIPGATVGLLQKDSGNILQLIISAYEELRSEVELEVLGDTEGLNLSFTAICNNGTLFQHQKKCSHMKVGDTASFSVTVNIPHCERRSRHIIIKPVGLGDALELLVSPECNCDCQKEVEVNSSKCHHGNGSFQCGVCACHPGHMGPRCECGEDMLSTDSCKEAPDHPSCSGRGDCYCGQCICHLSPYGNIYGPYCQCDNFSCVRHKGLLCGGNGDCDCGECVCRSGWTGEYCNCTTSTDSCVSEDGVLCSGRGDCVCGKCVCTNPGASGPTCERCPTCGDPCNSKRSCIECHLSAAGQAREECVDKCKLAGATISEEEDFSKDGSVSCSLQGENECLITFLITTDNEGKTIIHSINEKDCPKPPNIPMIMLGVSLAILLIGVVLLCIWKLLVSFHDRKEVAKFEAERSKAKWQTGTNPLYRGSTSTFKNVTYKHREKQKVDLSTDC
In words: saturation binding of biotinylated antibody, flow cytometry on 293F:huβ6 cells (apparent Kd). As for the experimental part:
as §1

The target in assay [3] is T3, cynomolgus integrin αvβ6 on 293F:cynoβ6 cells (human; cynomolgus, UniProt P06756 31-1048; A0A2K5TZ36 22-787).
T3 construct: whole, on cells; also called HEK293F:cynoβ6
The experiment in a line: saturation binding of biotinylated antibody, flow cytometry on 293F:cynoβ6 cells (apparent Kd). Here is the method: as §1

For assay [4], the target named is T2, human integrin αvβ6 on cells. The experiment in a line: competition binding, flow cytometry on 293F cells expressing αvβ6; competitor 2 nM AlexaFluor-647 m15H3. As for the experimental part:
1×10⁵ antigen expressing cells were aliquoted in each well of a 96-well v-bottom plate on ice. […] Cells were pelleted and washed 3 times with PBS. The cells were pelleted and resuspended in 125 uL of PBS/BSA. Fluorescence was analyzed by flow cytometery, using percent of saturated fluorescent signal to determine percent labeled murine 15H3 bound and to subsequently extrapolate the EC50 by fitting the data to a sigmoidal dose-response curve with variable slope.

Assay [5] concerns the target T4, rat integrin αvβ6 on NBT-II bladder carcinoma cells (rat, UniProt F1LZX9 31-1043; Q6AYF4 22-787).
T4 construct: whole, on cells; Endogenous αvβ6 of rat NBT-II cells; also called rat αvβ6; rat NBT-II
In words: saturation binding of biotinylated antibody, flow cytometry on rat NBT-II cells (apparent Kd). Here is the method: as §1
The KD for the murine αvβ6 monoclonal antibody 15H3 antibody and select humanized version thereof was determined for human, cyno, rat, and mouse. […] The genetically engineered cell lines express endogenous αv which pairs with the recombinant β6 chain to produce a heterodimeric receptor composed of endogenous αv and recombinant β6. The affinity for rat αvβ6 was determined using rat NBT-II bladder carcinoma cells, which expression endogenous αvβ6.

The target of assay [6] is T5, recombinant αvβ3 (human, UniProt P06756 31-992; P05106 27-718).
T5 construct: Bought from R&D Systems; species read from 'recombinant human αvβ6, αvβ3 and αvβ8'
In words: ELISA, integrin coated at 1 ug/ml, biotinylated antibody. Here is the method: (§2) 96-well Maxisorb plates (Nunc) were coated overnight at 4° C. with 1 ug/ml of recombinant human αvβ6, αvβ3 and αvβ8 diluted in PBS. Plates were washed in PBS with 0.05% Tween 20 (PBS-T). Wash buffer was removed and plates were blocked for 30 minutes at room temperature in TBS blocking buffer (TBS plus 1 mM MnCl₂, 0.05% Tween 20, 1% BSA). Plates were washed and then incubated for 1 hour with biotinylated antibody (m15H3 or h15H3) diluted in TBS blocking buffer at concentrations that ranged from 4.6 ng/m1-10 ug/ml. Plates were washed, incubated for 1 hour with 1 ug/ml of HRP-streptavidin, washed, and then incubated with TMB substrate for 10 minutes. The reaction was stopped with 1 M H₂SO₄. Absorbance at 450 nm was read using a Fusion HT plate reader (Perkin Elmer, Waltham, Mass.).
(§3) BALB/c mice were immunized three times with intraperitoneal injections of ˜5×10⁶ 3 T3:huβ6 transfectants. Three days prior to fusion, mice received a final injection of purified recombinant human αvβ6 that was given intravenously (6 ug) and intraperitoneally (30 ug). Lymphocytes harvested from spleen and lymph nodes were fused to P3X63Ag8.653 myeloma cells using polyethylene glycol. Fused cells were recovered overnight in hybridoma growth media (IMDM containing 4 mM glutamine, 10% Fetal Clone I, 10% Cloning Factor and Penicillin/Streptomycin). […] The plates were read in an FMAT 8200 (Applied Biosystems).

Assay [7] has as its target T6, recombinant αvβ8 (human, UniProt P06756 31-992; P26012 43-684).
T6 construct: Bought from R&D Systems; species read from 'recombinant human αvβ6, αvβ3 and αvβ8'
The description is as above. Here is the method: as §2, §3

For assay [8], the target named is T7, integrin αvβ5 on the parental line 293F:vector (human, UniProt P06756 31-1048; P18084 24-799).
T7 construct: whole, on cells; Negative control cells; also called HEK293F:vector
T7 sequence (P06756 31-1048, chain 1 of 2): as the sequence (P06756 31-1048, chain 1 of 2) above
T7 sequence (P18084 24-799, chain 2 of 2): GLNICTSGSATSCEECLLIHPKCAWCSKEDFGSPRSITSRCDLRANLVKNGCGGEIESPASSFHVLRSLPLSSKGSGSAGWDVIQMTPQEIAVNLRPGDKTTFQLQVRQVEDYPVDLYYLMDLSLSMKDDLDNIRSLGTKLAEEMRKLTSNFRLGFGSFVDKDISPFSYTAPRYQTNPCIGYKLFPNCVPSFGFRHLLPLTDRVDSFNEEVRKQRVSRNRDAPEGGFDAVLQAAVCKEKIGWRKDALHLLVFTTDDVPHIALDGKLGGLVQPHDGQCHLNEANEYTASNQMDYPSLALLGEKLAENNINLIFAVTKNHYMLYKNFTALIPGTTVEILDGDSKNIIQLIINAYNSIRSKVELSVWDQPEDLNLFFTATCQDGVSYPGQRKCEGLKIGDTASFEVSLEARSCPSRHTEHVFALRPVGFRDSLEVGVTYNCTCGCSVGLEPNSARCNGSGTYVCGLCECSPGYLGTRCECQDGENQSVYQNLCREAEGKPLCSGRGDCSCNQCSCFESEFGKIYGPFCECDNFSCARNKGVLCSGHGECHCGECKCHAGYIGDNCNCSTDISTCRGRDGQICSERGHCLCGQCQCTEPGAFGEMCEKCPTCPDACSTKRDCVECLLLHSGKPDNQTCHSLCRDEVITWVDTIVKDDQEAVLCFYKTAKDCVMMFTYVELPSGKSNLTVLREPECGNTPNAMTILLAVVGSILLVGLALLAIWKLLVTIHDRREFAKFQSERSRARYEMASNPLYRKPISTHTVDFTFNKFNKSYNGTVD
In words: FMAT and FACS binding on cells.

For orientation: EC50 means the concentration that produces a half-maximal response. The low end stands for a more potent agent, the high end for a less potent agent.

Numbering of substitutions follows the chain as printed.

T1 sequence (P43406 31-1044, chain 1 of 2): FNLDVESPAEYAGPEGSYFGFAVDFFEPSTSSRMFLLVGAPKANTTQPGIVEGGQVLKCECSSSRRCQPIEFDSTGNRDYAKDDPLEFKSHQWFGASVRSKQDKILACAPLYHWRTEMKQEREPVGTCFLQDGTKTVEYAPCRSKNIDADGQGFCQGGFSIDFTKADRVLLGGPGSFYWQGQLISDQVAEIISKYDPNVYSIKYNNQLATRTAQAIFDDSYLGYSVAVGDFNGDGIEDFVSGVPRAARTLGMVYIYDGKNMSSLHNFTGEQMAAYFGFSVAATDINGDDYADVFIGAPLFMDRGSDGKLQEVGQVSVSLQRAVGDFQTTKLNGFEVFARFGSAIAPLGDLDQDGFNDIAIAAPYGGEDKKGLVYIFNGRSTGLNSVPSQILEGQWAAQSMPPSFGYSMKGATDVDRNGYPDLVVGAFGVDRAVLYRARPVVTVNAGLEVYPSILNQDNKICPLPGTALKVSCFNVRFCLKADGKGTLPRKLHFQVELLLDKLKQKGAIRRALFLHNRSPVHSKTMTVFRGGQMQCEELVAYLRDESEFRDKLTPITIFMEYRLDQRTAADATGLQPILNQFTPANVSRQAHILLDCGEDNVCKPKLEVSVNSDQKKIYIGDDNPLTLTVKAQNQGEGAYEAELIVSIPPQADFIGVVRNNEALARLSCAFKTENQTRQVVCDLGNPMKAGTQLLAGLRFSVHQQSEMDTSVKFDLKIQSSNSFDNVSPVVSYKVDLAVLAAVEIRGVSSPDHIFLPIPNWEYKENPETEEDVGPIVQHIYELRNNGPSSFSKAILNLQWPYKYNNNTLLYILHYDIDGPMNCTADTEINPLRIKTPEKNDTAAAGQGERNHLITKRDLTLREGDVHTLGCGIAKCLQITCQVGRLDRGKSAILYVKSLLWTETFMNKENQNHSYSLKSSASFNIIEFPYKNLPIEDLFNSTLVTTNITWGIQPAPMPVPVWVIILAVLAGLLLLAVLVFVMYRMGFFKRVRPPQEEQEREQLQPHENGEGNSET
T1 sequence (Q9Z0T9 22-787, chain 2 of 2): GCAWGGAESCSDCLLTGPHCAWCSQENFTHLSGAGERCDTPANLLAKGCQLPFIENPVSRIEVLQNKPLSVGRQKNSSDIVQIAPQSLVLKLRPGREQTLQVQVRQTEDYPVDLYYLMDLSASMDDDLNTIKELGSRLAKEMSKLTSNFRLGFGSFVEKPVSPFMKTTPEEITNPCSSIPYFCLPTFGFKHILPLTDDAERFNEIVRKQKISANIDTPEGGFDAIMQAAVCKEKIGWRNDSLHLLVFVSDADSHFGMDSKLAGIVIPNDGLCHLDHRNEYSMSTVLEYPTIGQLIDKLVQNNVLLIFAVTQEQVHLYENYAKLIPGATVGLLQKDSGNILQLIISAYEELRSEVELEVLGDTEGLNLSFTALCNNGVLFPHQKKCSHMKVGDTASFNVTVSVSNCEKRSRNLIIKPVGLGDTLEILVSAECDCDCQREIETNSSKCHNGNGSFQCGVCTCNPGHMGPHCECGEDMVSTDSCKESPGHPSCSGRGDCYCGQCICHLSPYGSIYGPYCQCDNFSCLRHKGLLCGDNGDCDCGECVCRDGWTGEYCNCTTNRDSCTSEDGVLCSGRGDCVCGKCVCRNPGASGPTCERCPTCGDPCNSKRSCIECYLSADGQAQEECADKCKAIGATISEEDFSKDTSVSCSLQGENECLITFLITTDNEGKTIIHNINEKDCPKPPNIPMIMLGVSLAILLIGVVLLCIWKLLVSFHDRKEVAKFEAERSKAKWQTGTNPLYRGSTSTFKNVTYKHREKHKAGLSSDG

B1: humanized 15H3 antibody HBLC (antibody, V domains shown)
VH: QVQLVQSGAEVKKPGASVKVSCKASGYSFSGYFMNWVRQAPGQGLEWMGLINPYNGDSFYNQKFKGRVTMTRDTSTSTVYMELSSLRSEDTAVYYCARGLRRDFDYWGQGTLVTVSS
VL: DVVMTQSPLSLPVTLGQPASISCKSSQSLLDSDGKTYLNWLFQRPGQSPRRLIYLVSELDSGVPDRFSGSGSGTDFTLKISRVEAEDVGVYYCWQGTHFPRTFGGGTKLEIKR
notes: Only variable regions are tied to the construct; also called h15H3 (HBLC); h15H3-1
On to B1, for which the Kd in assay [1] was determined as 0.6 nM; in assay [2], 1.4 nM; in assay [3] it was 1.6 nM. The EC50 in assay [4] is 8.14 nM.

B2: humanized 15H3 antibody HTLC (antibody, V domains shown)
VH: B1 VH with D73Q, A97V
VL: B1 VL
notes: Only variable regions are tied to the construct; also called h15H3 (HTLC); h15H3-3
On to B2, for which the Kd came to 0.4 nM in assay [5], 0.3 nM in assay [1], 1.2 nM in assay [2] and 1.5 nM in assay [3]. This molecule also showed a 50% effective concentration (EC50) in assay [4] of 3.7 nM.

B3: murine 15H3 monoclonal antibody (antibody, V domains shown)
VH: EVQLQQSGPELVKPGASVKISCKASGYSFSGYFMNWVKQSHGQSLEWIGLINPYNGDSFYNQKFKGKATLTVQKSSSTAHMELQSLTSEDSAVFYCVRGLRRDFDYWGQGTPLTVSS
VL: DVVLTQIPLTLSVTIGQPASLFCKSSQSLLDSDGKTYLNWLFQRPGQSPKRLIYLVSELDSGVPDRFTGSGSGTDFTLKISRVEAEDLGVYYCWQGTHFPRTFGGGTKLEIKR
notes: Murine hybridoma antibody; also called m15H3; mouse 15H3
Take B3: the Kd was 0.2 nM in assay [5], 0.2 nM in assay [1], 0.8 nM in assay [2] and 1 nM in assay [3]. Moreover, the binding result in assay [6] is “no binding (tested: 4.6 ng/ml-10 ug/ml)”; in assay [7] it was “no binding (tested: 4.6 ng/ml-10 ug/ml)”; in assay [8] it was “no binding”.
